± gives the standard deviation of the averaged measurements.
test system: ATP; experiment: switch fluorescence ratio, 500 uM ATP over buffer (Cy3 cluster intensity, sum of 5 cycles each) (fold (ratio)); higher = stronger signal-on switching upon ATP binding; sequences stand for … in TCGTCGGCAGCGTCAGATGTGTATAAGAGACAGTTTTTTTTTTTTTTTTTTTTTTTTT…TC; conditions: aptamer strand: ATP DNA aptamer (quencher-CACCTGGGGGAGTATTGCGGAGGAAGG + anchor), 100 nM annealed; ATP concentration: 500 uM
Outline: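 Clusters with intensities outside 100-1000 RFU were excluded. The remaining Cy3-labelled switching-strand clusters on a modified Illumina MiSeq flow-cell had been annealed to 100 nM quencher-labelled ATP aptamer and imaged in selection buffer, then after 15 min with 500 uM ATP at 22 °C, for five cycles separated by NaOH stripping and re-annealing. The fluorescence ratio, averaged per switch-domain sequence, is each cluster's summed target-cycle Cy3 intensity over its summed buffer-cycle Cy3 intensity.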
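Also: ATP exposure 15 min at 22 °C before imaging.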

Row | Sequence | switch fluorescence ratio
1 | GGCTTATTTT | 1.0031 ± 6.6e-05
2 | GGCTTCTTGA | 0.966 ± 0.017
3 | GGCTTGAACT | 1.05 ± 0.083
4 | GGCTTGCCTC | 1.023 ± 0.0069
5 | GGGAAAGAAT | 0.978 ± 0.011
6 | GGGAAAGGAT | 1.02 ± 0.033
7 | GGGAAAGTTT | 0.996 ± 0.023
8 | GGGAAATATG | 1.01 ± 0.012
9 | GGGAAATGGT | 1.01 ± 0.027
10 | GGGAAATTCG | 1.012 ± 0.0039
11 | GGGAAATTGG | 1 ± 0.031
12 | GGGAACAGGG | 1.003 ± 0.0024
13 | GGGAACCGGG | 1.2 ± 0.33
14 | GGGAACGGTA | 0.9955 ± 0.0076
15 | GGGAACTGGG | 1.04 ± 0.049
16 | GGGAAGAATA | 0.986 ± 0.018
17 | GGGAAGAGGG | 1 ± 0.016
18 | GGGAAGAGTA | 1 ± 0.031
19 | GGGAAGATTC | 1.01 ± 0.04
20 | GGGAAGATTG | 0.966 ± 0.052
21 | GGGAAGCCTT | 1.028 ± 0.0069
22 | GGGAAGGAGT | 0.992 ± 0.043
23 | GGGAAGGCAT | 0.986 ± 0.047
24 | GGGAAGGCGT | 1.12 ± 0.14
25 | GGGAAGGGAT | 0.981 ± 0.031
26 | GGGAAGGGCA | 1.01 ± 0.049

Row | Sequence | switch fluorescence ratio
27 | GGGAAGGTAG | 0.995 ± 0.058
28 | GGGAAGGTGG | 1.04 ± 0.02
29 | GGGAAGTCCG | 0.974 ± 0.03
30 | GGGAATACTT | 1 ± 0.038
31 | GGGAATCTTC | 1.01 ± 0.034
32 | GGGACAATAT | 1.02 ± 0.044
33 | GGGACAGACC | 1.09 ± 0.024
34 | GGGACATAGT | 0.9616 ± 0.0037
35 | GGGACATTGT | 0.963 ± 0.03
36 | GGGACCAGGG | 0.989 ± 0.027
37 | GGGACCATAT | 1.03 ± 0.015
38 | GGGACCGTAT | 1 ± 0.023
39 | GGGACCTTTG | 0.994 ± 0.01
40 | GGGACGAATC | 1.006 ± 0.0041
41 | GGGACGATGG | 0.9857 ± 0.0013
42 | GGGACGCAGG | 1.015 ± 0.008
43 | GGGACGGGGG | 1.06 ± 0.16
44 | GGGACGGGGT | 0.963 ± 0.063
45 | GGGACGGGTT | 0.974 ± 0.029
46 | GGGACGTGTT | 1.02 ± 0.028
47 | GGGACTTATG | 1 ± 0.013
48 | GGGACTTCAA | 1 ± 0.039
49 | GGGACTTGGG | 0.998 ± 0.037
50 | GGGAGAATGC | 0.939 ± 0.097
51 | GGGAGACAGA | 0.957 ± 0.074
52 | GGGAGACTCG | 0.96678 ± 0.00026

Row | Sequence | switch fluorescence ratio
53 | GGGAGCAAAG | 1.04 ± 0.026
54 | GGGAGCCCCA | 1.04 ± 0.039
55 | GGGAGCGCCG | 1.03 ± 0.039
56 | GGGAGCTGCG | 1 ± 0.018
57 | GGGAGCTGTT | 1.06 ± 0.11
58 | GGGAGCTTTT | 0.999 ± 0.023
59 | GGGAGGAGGG | 0.976 ± 0.035
60 | GGGAGGCCGG | 1 ± 0.036
61 | GGGAGGCGAG | 1.016 ± 0.0011
62 | GGGAGGGGGA | 1.01 ± 0.035
63 | GGGAGGGGGT | 1 ± 0.035
64 | GGGAGGGGTA | 1 ± 0.029
65 | GGGAGGGTTA | 0.996 ± 0.055
66 | GGGAGGGTTC | 1.01 ± 0.083
67 | GGGAGTAGCA | 1.02 ± 0.026
68 | GGGAGTATGG | 0.977 ± 0.027
69 | GGGAGTGGTG | 1.12 ± 0.17
70 | GGGAGTGTCA | 0.981 ± 0.0045
71 | GGGAGTGTGT | 0.986 ± 0.039
72 | GGGAGTGTTT | 1 ± 0.026
73 | GGGAGTTAGA | 0.9885 ± 0.0063
74 | GGGAGTTAGG | 0.9609 ± 0.0049
75 | GGGAGTTTAG | 0.994 ± 0.016
76 | GGGATACCCT | 0.9798 ± 0.00069
77 | GGGATAGGGA | 1.01 ± 0.045
78 | GGGATAGTGG | 0.979 ± 0.03

Row | Sequence | switch fluorescence ratio
79 | GGGATATCTG | 0.98847 ± 0.00072
80 | GGGATATGTA | 1.01 ± 0.041
81 | GGGATCCCTT | 1.03 ± 0.05
82 | GGGATCCTTG | 1 ± 0.022
83 | GGGATGACCT | 1.1 ± 0.044
84 | GGGATGCGTG | 0.991 ± 0.043
85 | GGGATGGATC | 0.9929 ± 0.0011
86 | GGGATGGGCA | 1.01 ± 0.055
87 | GGGATTAAAG | 1.02 ± 0.017
88 | GGGATTGATC | 1.02 ± 0.021
89 | GGGATTGGAT | 0.967 ± 0.037
90 | GGGATTGGGA | 0.99 ± 0.045
91 | GGGATTTGGC | 0.995 ± 0.036
92 | GGGCAAAATG | 0.981 ± 0.036
93 | GGGCAAACAG | 0.959 ± 0.029
94 | GGGCAAACGA | 1.12 ± 0.025
95 | GGGCAAATGA | 0.9764 ± 0.0041
96 | GGGCAAGACA | 1.23 ± 0.018
97 | GGGCAAGCTG | 1.04 ± 0.1
98 | GGGCAAGGGT | 0.977 ± 0.029
99 | GGGCAATCTT | 1.119 ± 0.0083
100 | GGGCAATTGG | 0.992 ± 0.0056
101 | GGGCACTCTT | 1 ± 0.011
102 | GGGCACTTGT | 1.01 ± 0.04
103 | GGGCAGGCGA | 1.011 ± 0.0077
104 | GGGCAGGTGG | 1.08 ± 0.065

Row | Sequence | switch fluorescence ratio
105 | GGGCATAGG | 1.008 ± 0.0014
106 | GGGCATGGAA | 0.969 ± 0.018
107 | GGGCCAAGTA | 0.983 ± 0.033
108 | GGGCCACTCG | 0.9716 ± 0.0096
109 | GGGCCCAGCT | 1.02 ± 0.031
110 | GGGCCGAATG | 1.009 ± 0.0025
111 | GGGCCTGAGG | 0.969 ± 0.028
112 | GGGCCTTTTC | 1 ± 0.056
113 | GGGCGACACG | 1 ± 0.06
114 | GGGCGACTGT | 0.978 ± 0.023
115 | GGGCGATGTT | 0.984 ± 0.04
116 | GGGCGCAGCG | 0.978 ± 0.031
117 | GGGCGCAGGG | 1.01 ± 0.01
118 | GGGCGCCTAA | 1 ± 0.046
119 | GGGCGCCTGC | 0.9942 ± 0.0065
120 | GGGCGGGGGT | 1.02 ± 0.019
121 | GGGCGGTTTG | 0.971 ± 0.046
122 | GGGCGTACGG | 1.06 ± 0.045
123 | GGGCGTTTCG | 1.005 ± 0.0089
124 | GGGCTAAGGG | 0.985 ± 0.056
125 | GGGCTAGGCA | 1.02 ± 0.014
126 | GGGCTAGGGG | 0.994 ± 0.029
127 | GGGCTAGGTT | 0.986 ± 0.031
128 | GGGCTAGTAC | 1.13 ± 0.017
129 | GGGCTATCAT | 0.965 ± 0.012
130 | GGGCTATTAT | 1.02 ± 0.081

Row | Sequence | switch fluorescence ratio
131 | GGGCTCAGGC | 0.988 ± 0.0094
132 | GGGCTGCCGA | 1.03 ± 0.021
133 | GGGCTGTCTG | 0.9631 ± 0.0076
134 | GGGCTTCAGA | 0.987 ± 0.023
135 | GGGCTTCTTG | 0.962 ± 0.021
136 | GGGCTTCTTT | 0.996 ± 0.034
137 | GGGCTTTATA | 1.02 ± 0.014
138 | GGGGAAAAAA | 1.06 ± 0.14
139 | GGGGAAAAAG | 1.01 ± 0.028
140 | GGGGAAAAGA | 1 ± 0.025
141 | GGGGAAAGAA | 1.02 ± 0.064
142 | GGGGAACACT | 1.01 ± 0.022
143 | GGGGAAGACT | 0.989 ± 0.016
144 | GGGGAAGATT | 0.986 ± 0.03
145 | GGGGAAGGT | 1.04 ± 0.019
146 | GGGGAAGGTT | 0.991 ± 0.037
147 | GGGGAATCAG | 1.03 ± 0.017
148 | GGGGAATGCT | 1.01 ± 0.02
149 | GGGGAATGTA | 0.971 ± 0.022
150 | GGGGAATTAA | 0.99 ± 0.018
151 | GGGGAATTCA | 1.04 ± 0.046
152 | GGGGAATTCG | 1.02 ± 0.043
153 | GGGGAATTTT | 1.01 ± 0.037

— the supplement of paper PMC10126150
